We go through 1 substance from patent US20210230266A1.

Read-outs that look alike come from different tables or passages of the source.

Holding throughout (experiment): cell-based or functional assay
One experiment concerns the target Human IL-11 (human) (UniProt P20809).
The target in experiment [1] is IL-11:IL-11Rα fusion protein (hyper IL-11) (human).
Experiment [2] concerns the target Mouse IL-11 (mouse) (UniProt P47873).
Experiment [3] shares this target. This is another data set of the same source.

Chain of Mouse IL-11 (mouse) (P47873 22-199 limits assumed): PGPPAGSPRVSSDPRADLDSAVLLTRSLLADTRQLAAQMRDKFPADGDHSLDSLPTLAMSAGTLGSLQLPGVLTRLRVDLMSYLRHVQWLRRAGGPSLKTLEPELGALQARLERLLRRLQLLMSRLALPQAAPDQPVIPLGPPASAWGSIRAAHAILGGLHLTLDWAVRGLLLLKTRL
Chain of Human IL-11 (human) (P20809 22-199 limits assumed): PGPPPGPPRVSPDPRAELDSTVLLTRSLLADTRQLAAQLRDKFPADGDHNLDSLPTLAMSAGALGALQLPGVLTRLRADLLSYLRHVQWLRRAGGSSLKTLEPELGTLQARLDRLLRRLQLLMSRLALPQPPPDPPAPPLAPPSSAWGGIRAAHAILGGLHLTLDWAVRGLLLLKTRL
Chain of IL-11:IL-11Rα fusion protein (hyper IL-11) (human) (chain, as listed by the source limits assumed): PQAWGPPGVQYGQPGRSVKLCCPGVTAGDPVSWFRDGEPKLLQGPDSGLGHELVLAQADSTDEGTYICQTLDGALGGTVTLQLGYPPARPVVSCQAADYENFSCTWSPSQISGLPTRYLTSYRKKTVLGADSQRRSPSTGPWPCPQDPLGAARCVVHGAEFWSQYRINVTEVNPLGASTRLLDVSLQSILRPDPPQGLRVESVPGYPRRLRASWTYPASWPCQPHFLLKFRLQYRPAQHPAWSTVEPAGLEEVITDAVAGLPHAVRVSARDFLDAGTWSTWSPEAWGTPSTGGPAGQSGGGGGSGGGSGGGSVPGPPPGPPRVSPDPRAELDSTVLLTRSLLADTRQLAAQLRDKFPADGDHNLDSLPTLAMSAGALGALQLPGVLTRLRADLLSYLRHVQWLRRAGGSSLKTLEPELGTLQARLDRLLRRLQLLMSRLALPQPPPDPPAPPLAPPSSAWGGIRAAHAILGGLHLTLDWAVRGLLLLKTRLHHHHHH

For the substance “Monoclonal mouse anti-human IL-11 antibody, IgG2A, Clone #22626, Catalog No. MAB218 (R&D Systems)”, in the experiment with Human IL-11 (human), the fold of αSMA-positive cells relative to unstimulated cells, human atrial fibroblasts + TGFβ1 turned out to be 0.89 times; the fold of αSMA-positive cells relative to unstimulated cells, human atrial fibroblasts + TGFβ1 (fold of unstimulated) was 0.99; the percentage of activated (αSMA-positive) fibroblasts, human atrial fibroblasts + TGFβ1 turned out to be 28.3%. Moreover, in experiment [1], the fold of αSMA-positive cells relative to unstimulated cells, human atrial fibroblasts + hyper IL-11 (fold of unstimulated) came out at 1.28 and the percentage of activated (αSMA-positive) fibroblasts, human atrial fibroblasts + hyper IL-11 is 33.8%. For the same substance, in the experiment with Mouse IL-11 (mouse) [2], the fold of αSMA-positive cells relative to unstimulated cells, mouse atrial fibroblasts + TGFβ1 (fold of unstimulated) came to 1.24 and the percentage of activated (αSMA-positive) fibroblasts, mouse atrial fibroblasts + TGFβ1 was 39.4%. Further, in the experiment with Mouse IL-11 (mouse) [3], the fold of αSMA-positive cells relative to unstimulated cells, mouse atrial fibroblasts + TGFβ1 (fold of unstimulated) was determined as 1.44 and the percentage of activated (αSMA-positive) fibroblasts, mouse atrial fibroblasts + TGFβ1 stood at 43%.
